{
  "source": "the DeepSol protein solubility set",
  "data": [
    {"assay": "soluble on expression in E. coli; label from the status in PepcDB or PDB records", "values": [
      {"sequence": "MNRIEHYHDWLRDAHAMEKQAESMLESMASRIDNYPELRARIEQHLSETKNQIVQLETILDRNDISRSVIKDSMSKMAALGQSIGGIFPSDEIVKGSIGGYVFEQFEITCYTSLLAAAKNAGDTVSIPIIEAILNEEKQMADWLIQHIPQTTEKFLIRSETDGVEAKK", "soluble on expression in E. coli": "not soluble"},
      {"sequence": "MAHHHHHHMNGELNIGAGRVIFYRTIAKQNRNTLPLWTLQRHLYAYHPYVWFAIASASNAEAMEKLAERLGMKLVQDATTSYKISIRRSSELLDGELNAQLQCTKMNRPWDRFLITHYVRSQMPDLRFLVRARHPIKKRVTDAYLEADILRSTRDSVQSVLSPELGEVCYCCERVIRKWAMRTQTGVTLQLVETRRTPLIITKAGDEGERLEYEWIVVLPQKAERIDIAALSAELWDYGNVLARELEPGMEEFLSHTMTAAASY", "soluble on expression in E. coli": "not soluble"},
      {"sequence": "MEGMKGAVLITGASRGIGEATARLLHAKGYRVGLMARDEKRLQALAAELEGALPLPGDVREEGDWARAVAAMEEAFGELSALVNNAGVGVMKPVHELTLEEWRLVLDTNLTGAFLGIRHAVPALLRRGGGTIVNVGSLAGKNPFKGGAAYNASKFGLLGLAGAAMLDLREANVRVVNVLPGSVDTGFAGNTPGQAWKLKPEDVAQAVLFALEMPGHAMVSEIELRPTRPTSGPR", "soluble on expression in E. coli": "soluble"},
      {"sequence": "MYSPESMNSNISSPSPPSSSSLNAPSLADAPEVRSDDGEAETSEPSTSVTAVPMEIVSQASTSAPVNQLLASGIDMSSVIKNNAVLQALLASASAGGFGDNAGLTMSKLLTAALANGSTAVAKRDAGSPRTDIPKKTRLKVFSNGFFMTFDKLSSCQKKYFWRCEYKNTCKARMHTDIVTEKILTFIHEHNHSAPIDEEVRLYGLDPTNIERNRVYIVGNVADPNQRRKIRKQVADREAAAKRLVQQQEEEQQKQQSASSIVAARAAYAQAMQNGSIPTSSGVASFLQSTSATAPMTSHSMLLAQMPFLNNIKTEMSNMVKNEQFTPERYTQHMSPNLPLQTATIAPLIIPTENYDSPSYRQPAIKRKATDLTNEEHDLRRDPMFQPTFELARKLRKLWKGEPNRYPRTTTTPTHHFEFFLSKNDGTDEHLYVPMRINLRDEAHLKEALQDFCGQQCIGMLLFGISPKISVMFNQPMLNNWDNNQFFLLDISNPSRWRLMYVDDQAV", "soluble on expression in E. coli": "not soluble"},
      {"sequence": "MSLKRLACYIRVSSNKDDQQSSLIQQETLLREKFKQEDLIIYSDTGTGVSFNREGFKRLMYDAGLNICKLNDGRITFEADNIRKPIFDEIVVINTSRFSRNIAIIDILRVLWDYKKINVHFLDNCKNSNNPNDMTVLKMFFSMAENESMETSNRTKRGNEISILDNTIRNNSIFGWDFDREKNYLKINKKEAEIVRFIFKTALTNGLKMTAKIVNEKGYRTKKNRLWSSSTIKTLIVNPKYKGYNVRNKYSNENMFTGVKSKYVKKENWIIQKNNRIEPIVSEELWEEVQRALESRCLHGNREGHHHHHH", "soluble on expression in E. coli": "soluble"},
      {"sequence": "MEEKTILAQILQVLDLYAADMRKQFEALHEKFDSLQRQVQALNEKTDEMDKRIEEMDGRFERQIAQLERTVNERFERLEAKLGHIRVELVETQETVDFHSVKIAQHDRKIRHLLHAR", "soluble on expression in E. coli": "not soluble"},
      {"sequence": "MYINNKLTEDLLLGEIYYLISKTYFFIENIQKAINFAFLAKSEFEKVYNKKAYAKSLELLAEEHAKVGDLESAIAYSKQSLNVYKELEQLDKISSIEDSLGKLFFEFDNIEESFEHYNRAIKIREENTDSKLLDTLFNLCENHIKTKNMNKCIEILNEIKNKLNVSDVNRLIEYKILTFRIEVLQNNIKEAENILLDTLEIAKRNDMKKKEADISIRLGKFYLELKRDYEAAKYLDKGINNLKNLGVIKSLEHHHHHH", "soluble on expression in E. coli": "not soluble"},
      {"sequence": "MGYCVLHLEKAKGADSGMSAHIERTIVPKNIDPTRTHLNRELIMFPDGVCNRTLAIRHRLDTAGLKRKIGKNQVQAIRIVLSGTHEDMARMEDEGRLGEWCDDSVAWLRETYGAENLVSAVLHMDEETPHIHATVVPIVQGERRKQKKEENARRRYRTKAPAPRLCADEVMSRASLIRYQDTYAEHMEKYGLKRGVRGSLAKHLSTHEYYRSLITQGEDIQANIATLLSRETEASRIIAEAEQAKQELARIKAETKTVELKNSAARTATAALNGIGSLLGSNKMSRLESENRQLHGEVAELKESIEQMRTDMQKMRDSYTAEQLRVSEQHQREIGNFRRIIDKAKEWFPILAEFLRIERICRSVGLSERHTDELLQGKVLVVTGKLFSDEYKRSFTVEKVRLKVGREERDGKTVLDLLVDRVPIAAWFKEKWEKVSINRFRRNEMTIQKERGVRLLEHHHHHH", "soluble on expression in E. coli": "not soluble"},
      {"sequence": "KRGPSAVTVVTEQVETHEINQSLSLIGKLKAAESVVVASEVAGKVKQIAVKANQNVQQNQLLIQLDDDKAQAALVEAKAYLKDEERKLKEFQRLVKRNAITQTEIDAQKASVEIAQARLDAAKANLADLHITAPFSGTVGFIDFSRGKMVSAGTELLTLDDLSVMELDLQIPERYLSMLSVGMEVAAKTSAWGEQRFSGKVTGIDTRISAETLNLRVRIEFDNPENQLKPG", "soluble on expression in E. coli": "not soluble"},
      {"sequence": "AHHHHHHGSAESPFKADIERAQKELSEKMTPGAIVYIPGSSVINKTGSWRVFKPEFNRDKCVRCYLCYIYCPEPAIYLDEEGYPVFDYDYCKGCGICANECPTKAIEMVREVK", "soluble on expression in E. coli": "not soluble"},
      {"sequence": "MGHHHHHHSHAAPGAQHFLYEVPPWVMCRFYKVMDALEPADWCQFAALIVRDQTELRLCERSGQRTASVLWPWINRNARVADLVHILTHLQLLRARDIITAWHPPAPLP", "soluble on expression in E. coli": "not soluble"},
      {"sequence": "MPLFKRRDGSGPAPNATIREKYDFRDVLGTGAFSKVFLAESKSDAGQMYAVKCIDKKALKGKEESLENEIKVLRKLRHNNIVQLFDTYDEKQFVYLVMELVTGGELFDRIVAKGSYTEQDASNLIRQVLEAVGFMHDNGVVHRDLKPENLLYYNQDEDSKIMISDFGLSKTEDSGVMATACGTPGYVAPEVLQQKPYGKAVDVWSIGVIAYILLCGYPPFYDESDANLFAQIIKGEYEFDAPYWDQISDSAKDFITHLMCCDPEARFTCQDALSHPWISGNTAYTHDIHGTVAVHLKKSLAKRNWKKAYNAAAAIRQLQMLRLSSNSNRLQKQASQQQPEPPTPAFHA", "soluble on expression in E. coli": "soluble"},
      {"sequence": "MGSDKIHHHHHHMLGFRALAKPGAISMWVPQYSHQTQPVYLMIADALEQDIESGRLAEGDRLPTLKDLAEALNVTPGTVGRAYDEAAKRGLVAGEVGRGTFVRQLRQPLPAPSVPTPVAGESSQIDLSIIKPNDAHMSEWLGTAISELAASSDLGQVLDYVTEGGHTSHKQAGATWIQRWLPDARWQQVVLTAGAQHGLLVAISSLSKSDDVVLCESLCYPGIISLAHSLGRRLRGVAMDEHGLIPEALRAACLEHRPSLLVCVTTHQNPTNSIMPPARRQAIAEIAREFDLFIVDDDIYGFLEPSPDYKPLAAYAPERSVYLTSLSKSVLPALRIGYLYAPPQTLSRLSSMVRSSVWMPSPLMAQLASNLINSGKADQLVRMQQQEAAARQHMAREILGQYKIRSQPHSFHIWLELPEPWTSDEFANLARDNGVTVVSGSQFLPERSHATSGVRIALMAPSRQELGFALTKLASLLDSPEPRLFY", "soluble on expression in E. coli": "not soluble"},
      {"sequence": "ATGDTAATAAPAKAEKTAGSVLRDAKRVIIVPGYGMALAQAQHQVRQLADKLTANGTEVRYAIHPVAGRMPGHMNVLLCEADVPYDQLFEMDAINGDFAQTDAVVVIGANDVMNPAARNAEGTPIYGMPVLNVDDAPEVIICNFDLKPGYAGVDNPLYTRATGVFLKLGDAKESLAEIMKEMDIA", "soluble on expression in E. coli": "not soluble"},
      {"sequence": "MSLEGDRGQDDVLRILVATDTHLGYKADDSERGGDSFETFQEILEIGRNLKVDFLLHGGDLFDENRPSRATLYRTFCLLRKFCFGDGAVSFEVLEGAAESRGRGEGFRFGLNYLDENINVCMPIFAMHGNHDDPGEQSHLSPLDLLEAAHLINYFGRCDATDEVTIKPILIKKGQTKVAIYGVGWIRDARLHRAFNNGKVRFLVPSASAGEDSVDDWFNIMVVHQNMYKGAFGGQPAKNCIHEQMLPDFLDLAIWGHEHDCHLDLRDAPQGTFRVLQPGSSIATSLVAGEALPKHVFLLEIRGENYRVTPQRLRTVRPLLFEDVALSDLLHSRPPLAPALSGVRTPQSRVSNSGAGRNLQTAQPAEDRDVWQLLTDAVEELLSRFAREEGHHHHHH", "soluble on expression in E. coli": "soluble"},
      {"sequence": "MSLSRQCVLAGISRAALYARRKPKRIVQDDELLLRLIDEEYTRHPFYGSRKMVVHLGRCGHSVNRKWAQRLMRSLGLAGMAPGPNTSRAHPQHKVYPYLLRGVAISRPNQVWSTDITYIRLARGFAYLVAVIDWYSRRVLSWRISNSMETVFCVDCLEEALRIHGKPEVFNTDQGSQFTSEAFTSVLKREGVIISMDGRGRALDNIFVERLWRSVKHEDVYLKGYSAMGELLIGLTQYFTFYNGERPHQALKNLTPDVVYQRAQGGGAMIVDKYGAAQSLPMALRSTGTAFDEVRLALLCHVTHADAGLSWRCSEGTERKSRDEAWREGHHHHHH", "soluble on expression in E. coli": "not soluble"},
      {"sequence": "MAAALKPSAPEIRKAAQEFINYLNKAVTPFHATQEVKDRLLQAGFTELPESGHWDIQPTSKYFVTKNRSAILAFAVGGSYKPGSGFSIVVGHTDSPCLRVKPISHQKSDKFLQVGVSTYGGGIWRTWFDRDLSVAGLVIVKNGEKLQHKLIDVKKPVLFIPNLAIHLETDRTTFKPNTETELRPILETFAAAGINAPQKPESTGFADPRNITNNHHPQFLGLIAKEAGCQPEDIVDLDLYLYDTNKAAIVGMEDEFISGARLDNQVGTYTAISGLLESLTGESFKNDPQIRIAACFDNEEVGSDSAMGASSSFTEFVLRRLSAGGSTTAFEEAIGKSMLISADQAHATHPNYSAKHEENHRPAFHGGVVVKVNVNQRYATTSTTHAALKQVAFEAQVPLQVVVVRNDSPCGSTVGPILATKLGLQTVDVGCPQLAMHSIREFADTSSIYQATTLYSTFYERLSTVLSNMQ", "soluble on expression in E. coli": "not soluble"},
      {"sequence": "MGSDKIHHHHHHVPVSQLPSQPTDNNSSAATDVTPVVALKELVARLHREQNKIQDLLSSLGFALRSFNNLNQFLELIPLMATRVTDADGSALFLYKPNGQVRLEQLHWQDSGQRKNIRKALEIASSQITLLPNAAPLANATGILDDQMHRYLGPDVQIFGTAILVKHTERGWLYVLSRDPEYSWTETRQKLVRLVADQTAVAIENDELAVELRKKERLDQELEIGAEIQRRLLPRQCPTIPGAVLAARCKPANRVGGDYYDFIATNQNKIRSKTKGDTETGRWGLVIGDVMGKGVPAGLIMTMMRGMLRGEVLHGNSPAKILQNLNRVMYADLENSHRFVTLFYSEYNPHSRILSYSNAAHNPPLWWHAATKTVSRLDTLGMLIGLDANSQYEDAQVQLEPGDTIIYYTDGLTDAAAAGGDRFDEDNFVAGFNTACKYCNGPEEIVDYLFDQVQQFIGDDKQNTDDMTLVVLQIL", "soluble on expression in E. coli": "not soluble"},
      {"sequence": "MKFGIVARRDKEEALKLAYRVYDFLKVHGYEVVVDKETYEHFPHFKEGDVIPLDEFDVDFIVAIGGDGTILRIEHMTKKDIPILSINMGTLGFLTEVEPSDTFFALNRLIEGEYYIDERIKVRTYIDGENRVPDALNEVAILTGIPGKIIHMKYYVDGGLADEVRADGLVVSTPTGSTGYAMSAGGPFIDPRLDVILIAPLLPLPKTSVPMVIPGSSRIDIRMLTDREIILAIDGQYYEHLPPNVEITVVKSPRKTKFIRFTREIYPKYTIRIKERHMAGDPLEHHHHHH", "soluble on expression in E. coli": "not soluble"},
      {"sequence": "MGSDKIHHHHHHMSSNQIAIKVTNLSKCYQIYSQPWDRLKQFFAPKIKSVIRRESRSYFKEFWALRDVSFSINRGETVGIIGRNGAGKSTLLQMICGTLTPTVGDIEVNGRVAALLELGAGFNPEFSGRDNVYLNGSVLGLSKSEIDKKFQEILDFADIGDFIDQPVKTYSSGMYVRLAFAVQACIDPEILIVDEALAVGDIGFQYKCFKRMEMLKQKGTTIIMVTHSTGSILEYADRCLVMSDGMLVGNTTDVLAAVLAYEKGMLMTERTDTAEKKEAVSQTGEIASADELSAIQNTQTNAEVDEKRFGSGRAIIEDFSIMKADGTPLSEKPLVKPNEEIYFSFKLNSSENINDVVLGVSLSRTQGGDIWGDNNIFAGHKIDLAPGLRKLKYKVKLPINTGDYLVHCGLACFNNGEREELDQRRPIAKVKFWSSRELGGVIHSPVNVIEGDELS", "soluble on expression in E. coli": "not soluble"}
    ]}
  ]
}
